Consider one molecule from US20220242939A1.

Non-standard residues stand in square brackets, D forms with d. No end group written: not given here. Ahx = NCCCCCC(=O)O

In test [1] the target is 4E6, recombinant IgG2c antibody. Briefly: inhibition ELISA 2nd protocol: antigen in solution varied, antibody 4E6, plate coated with G200-BSA peptide. (In general: In an ELISA, binding on a coated surface is turned into a signal by an enzyme label.)
The target is the same in test [2]. The test can be described thus: inhibition ELISA: antigen in solution varied, antibody 4E6 at 0.05 µg/ml, plate coated with G200-BSA peptide.

Chain of 4E6, recombinant IgG2c antibody (VH, as listed by the source limits assumed, chain 1 of 2): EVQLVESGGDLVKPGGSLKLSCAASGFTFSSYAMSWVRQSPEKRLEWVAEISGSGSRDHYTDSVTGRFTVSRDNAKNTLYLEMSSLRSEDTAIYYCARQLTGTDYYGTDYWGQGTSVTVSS
Chain of 4E6, recombinant IgG2c antibody (VL, as listed by the source limits assumed, chain 2 of 2): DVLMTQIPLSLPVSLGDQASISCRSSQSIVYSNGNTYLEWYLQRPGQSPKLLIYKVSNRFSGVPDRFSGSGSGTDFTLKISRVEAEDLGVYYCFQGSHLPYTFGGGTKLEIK

B1: G200 N-terminal neo-epitope peptide GQPLQE-Acp-C (SEQ ID NO:50) conjugated to BSA (peptide)
peptide: GQPLQE[Ahx]C
modifications: not fully specified (residue 8); printed as GQPLQE-Acp-C; also: C-terminal Cys conjugated to BSA carrier
Usually IC50 stands for the concentration needed to halve the response being measured. Consider B1, for which the half-inhibitory concentration (IC50) in test [1] is 11.5 ng/mL; in test [2] it was 2.9 ng/mL.
